Km and kcat data for 4 proteins are collected here from PMC10628242, “Enzymatic β-elimination in natural product O- and C-glycoside deglycosylation” (Nature Communications, 2023).

Substrate in data set [1]: O=C(CCc1ccc(O)cc1)c1c(O)cc(O)cc1O[C@@H]1O[C@H](COP(=O)(O)O)[C@@H](O)[C@H](O)[C@H]1O
Put plainly: initial rates, HPLC of phloretin release. As to conditions: HEPES pH 7.5, 0.5 mM MnSO4, 0.3 mM NAD+, 37 °C. The data set is classed as biochemical, Bacillus subtilis.

Substrate in data set [2]: O=C(CCc1ccc(O)cc1)c1c(O)cc(O)cc1O[C@@H]1O[C@H](CO)[C@@H](O)C(=O)[C@H]1O
Description: initial rates, HPLC of phloretin release. Format: biochemical, human intestinal bacterium PUE. As to conditions: potassium phosphate pH 6.0, 5% DMSO, 37 °C, preincubated with 5 mM MnCl2.

Substrate in data set [3]: O=C1[C@@H](O)[C@H](c2c(O)ccc3c(=O)c(-c4ccc(O)cc4)coc23)O[C@H](CO)[C@H]1O
Put plainly: initial rates, HPLC of daidzein release. The data set is classed as biochemical, human intestinal bacterium PUE. The settings on record: potassium phosphate pH 6.0, 5% DMSO, 37 °C, preincubated with 5 mM MnCl2, substrate is a 2/3-keto mixture.

Substrate in data set [4]: O=C(CCc1ccc(O)cc1)c1c(O)cc(O)cc1O[C@@H]1O[C@H](COP(=O)(O)O)[C@@H](O)[C@H](O)[C@H]1O
Description: initial rates, HPLC of phloretin release. Format: biochemical, Thermotoga maritima. As to conditions: HEPES pH 7.5, 0.5 mM MnSO4, 0.3 mM NAD+, 37 °C.

Substrate in data set [5]: O=C(CCc1ccc(O)cc1)c1c(O)cc(O)cc1O[C@@H]1O[C@H](CO)[C@@H](O)C(=O)[C@H]1O
Put plainly: initial rates, HPLC of phloretin release. Format: biochemical, Agrobacterium radiobacter. As to conditions: potassium phosphate pH 6.0, 5% DMSO, 37 °C, printed kcat is 10-fold above the one implied by printed kcat/Km (1.2 × 10^6 M^−1s^−1) and by 235 U/mg.

B1: GlvA (Bacillus subtilis subsp. subtilis str. 168) (protein)
chain: MKKKSFSIVIAGGGSTFTPGIVLMLLDHLEEFPIRKLKLYDNDKERQDRIAGACDVFIREKAPDIEFAATTDPEEAFTDVDFVMAHIRVGKYAMRALDEQIPLKYGVVGQETCGPGGIAYGMRSIGGVLEILDYMEKYSPDAWMLNYSNPAAIVAEATRRLRPNSKILNICDMPVGIEDRMAQILGLSSRKEMKVRYYGLNHFGWWTSIQDQEGNDLMPKLKEHVSQYGYIPKTEAEAVEASWNDTFAKARDVQAADPDTLPNTYLQYYLFPDDMVKKSNPNHTRANEVMEGREAFIFSQCDMITREQSSENSEIKIDDHASYIVDLARAIAYNTGERMLLIVENNGAIANFDPTAMVEVPCIVGSNGPEPITVGTIPQFQKGLMEQQVSVEKLTVEAWAEKSFQKLWQALILSKTVPNARVARLILEDLVEANKDFWPELDQSPTRIS
notes: N-terminal Strep-tag II; E. coli; 51,960 Da; GH4, Mn2+ and NAD+ dependent
Consider B1, for which, in data set [1], the Km was 0.1 mM and the kcat is roughly 0.02 s⁻¹.

B2: PuCGE (human intestinal bacterium PUE) (protein)
chain 1: MSNVKLGVTLYSFSTEYCQGKMTLEDCIRTAKELGAAGFEIVATQMIPSYPYVSDKFLGELKSICQYYDMEPVCYGANCDRGLRGDRNLTGDEMVAMAVRDIKNAHKMGCKVVREQWLMGPENFAKLAPFAEHYGVKVGIEVHNPETPITQSTKDYIAAIDKTGSKYLGLIPDFGCFANKPNKMNWDNALADGADKKLLEMARDMKYDNVPYDEAVKRLTAAGAKKVELTTMRDMYTFLTFKKDVSAELQGLKDMIPYCIHMHGKYHYMYENLQEAAIPYDDIMKIVSESDYDGYIVSEYEEYNSGHSIEMLRRHLKMMHNFVD
chain 2: MGLALRLNFVDVVCDDSLKNFWANGKKIGYQFDVRLSYYRGHFLSTIDEIGVKVDGVDVPAENISLCLDGKEYGVAELHDLVNVFWPIIEPATIKVFQPGGLSEEEHDVDFTLYFRSPYMALSETEYQSIDSCGSKRLNVQN
notes: heterodimer alpha (39,205 Da) + beta (18,313 Da), co-expressed from pET-Duet-1 in E. coli; N-terminal Strep-tag II; Mn2+ enzyme
For B2, the Km in data set [2] is 0.6 (±0.1) mM; in data set [3], 0.8 (±0.1) mM. The kcat in data set [2] is 1.20 (±0.05) s^−1; in data set [3], 18 (±0.4) s^−1.

B3: BglT (Thermotoga maritima MSB8) (protein)
chain: MRIAVIGGGSSYTPELVKGLLDISEDVRIDEVIFYDIDEEKQKIVVDFVKRLVKDRFKVLISDTFEGAVVDAKYVIFQFRPGGLKGRENDEGIPLKYGLIGQETTGVGGFSAALRAFPIVEEYVDTVRKTSNATIVNFTNPSGHITEFVRNYLEYEKFIGLCNVPINFIREIAEMFSARLEDVFLKYYGLNHLSFIEKVFVKGEDVTEKVFENLKLKLSNIPDEDFPTWFYDSVRLIVNPYLRYYLMEKKMFKKISTHELRAREVMKIEKELFEKYRTAVEIPEELTKRGGSMYSTAAAHLIRDLETDEGKIHIVNTRNNGSIENLPDDYVLEIPCYVRSGRVHTLSQGKGDHFALSFIHAVKMYERLTIEAYLKRSKKLALKALLSHPLGPDVEDAKDLLEEILEANREYVKLG
notes: N-terminal Strep-tag II; E. coli; 48,997 Da; GH4, Mn2+ and NAD+ dependent
As for B3, in data set [4], the Km was 0.3 mM and the kcat was roughly 0.01 s⁻¹.

B4: AtOGE (Agrobacterium radiobacter) (protein)
chain: KLDDSKTLPIAAQMYTLRNAGTLEEQLAILNRAGVSAVETVDMQKVSASELNALLEKHKIKVISSHVPIDKLRGNLDEVITEQKAVGNPVVTVPFLKPEDRPKDAAGWTAFGKELGGYADKLSAAGLSMAYHNHDFEMVKFDGKTALELLLDAAGPKLQSELDVAWVARSGNDPAEFLGTLNGRVFAIHAKDDAPAGTAENERGFATIGTGVLDWKTILPAAKHAGAQWFILEHDLPLDAEAVVTKGNAFLSERLPTIQ
notes: N-terminal Strep-tag II kept in assays (cut by TEV only for crystallization); E. coli Lemo21(DE3); 29,895 Da subunit; Mn2+ enzyme; dimer in crystal
With B4, the Km in data set [5] is 0.10 (±0.01) mM.
